Test results reported in patent US20180194851A1 (Pfizer, published 2018).

Key:
[1] = molecular target: T1, Recombinant human 4-1BB/Fc Chimera (R&D Systems #838-4B) (human, UniProt Q07011 24-186); experiment: ELISA on directly coated human 4-1BB/Fc
T1 construct: Bought protein; also called Human 4-1BB IgG1Fc chimera; not shown: Factor Xa-cleavable junction, human IgG1 Fc and 6xHistidine tag of the bought chimera

[2] = molecular target: T2, human 4-1BB on cells (human, UniProt Q07011 18-255); experiment: FACS on HEK293 cells expressing human 4-1BB
T2 construct: Expressed on stably transfected HEK293/HEK293T cells, transduced 300-19 cells or PHA stimulated human PBMC; also called h41BB; hu4-1BB

[3] = molecular target: T3, human 4-1BB (recombinant antigen, construct not stated) (human, UniProt Q07011 24-186); experiment: SPR (Biacore 3000), Fab analyte on amine-coupled human 4-1BB
T3 construct: It may be the 4-1BB/Fc chimera; also called CD137/HUMAN 4-1BB; unlabeled human 4-1BB

[4] = molecular target: T3, human 4-1BB (recombinant antigen, …); experiment: solution equilibrium titration (SET), MSD electrochemiluminescence
[5] = molecular target: T2, human 4-1BB on cells; experiment: FACS on transfected cells
[6] = molecular target: T4, Hu41BB N&E.5 (human, UniProt Q07011 18-255); experiment: FACS dose response on 300-19 cell pools
T4 construct: Human-to-dog mutant of the human 4-1BB extracellular domain, expressed on transduced 300-19 cells; also called 4-1BB Mutant N&E.5
T4 chain: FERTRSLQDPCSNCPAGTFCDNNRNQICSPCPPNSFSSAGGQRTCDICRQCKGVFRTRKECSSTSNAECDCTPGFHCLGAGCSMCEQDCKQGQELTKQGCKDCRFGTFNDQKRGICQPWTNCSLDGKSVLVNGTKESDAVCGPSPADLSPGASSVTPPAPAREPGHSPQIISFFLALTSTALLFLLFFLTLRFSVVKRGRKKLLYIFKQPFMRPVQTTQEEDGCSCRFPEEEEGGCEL

[7] = molecular target: T5, CD40 on 300.19 cells (UniProt P25942 21-277, limits assumed); experiment: FACS on 300.19 cells expressing CD40
T5 construct: whole, on cells; also called TNFRSF5; 300.19 CD40
T5 sequence (P25942 21-277 limits assumed): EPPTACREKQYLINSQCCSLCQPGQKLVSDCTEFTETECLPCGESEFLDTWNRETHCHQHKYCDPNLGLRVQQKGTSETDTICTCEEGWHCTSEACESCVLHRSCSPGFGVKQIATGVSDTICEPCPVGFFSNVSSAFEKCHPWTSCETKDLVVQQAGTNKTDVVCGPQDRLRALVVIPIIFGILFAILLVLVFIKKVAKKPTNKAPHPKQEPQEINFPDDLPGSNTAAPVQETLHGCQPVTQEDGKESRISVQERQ

[8] = molecular target: T6, OX-40 on 300.19 cells (UniProt P43489 29-277, limits assumed); experiment: FACS on 300.19 cells expressing OX-40
T6 construct: whole, on cells; also called CD134; TNFRSF4
T6 sequence (looked up): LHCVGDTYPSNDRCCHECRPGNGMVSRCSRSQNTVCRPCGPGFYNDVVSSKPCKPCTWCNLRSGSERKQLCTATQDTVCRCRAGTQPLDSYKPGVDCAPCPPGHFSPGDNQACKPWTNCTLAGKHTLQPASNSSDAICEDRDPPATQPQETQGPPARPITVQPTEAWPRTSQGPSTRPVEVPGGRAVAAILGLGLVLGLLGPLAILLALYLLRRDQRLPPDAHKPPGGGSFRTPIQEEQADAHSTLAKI

[9] = molecular target: T1, Recombinant human 4-1BB/Fc Chimera (R&D …); experiment: ELISA on coated human 4-1BB IgG1Fc chimera
[10] = molecular target: T1, Recombinant human 4-1BB/Fc Chimera (R&D …); experiment: ELISA on directly coated human 4-1BB/Fc, IgG1
[11] = molecular target: T2, human 4-1BB on cells; experiment: FACS on HEK293T cells expressing human 4-1BB, IgG1
[12] = molecular target: T7, Hu41BB N&E (human, UniProt Q07011 18-255); experiment: FACS, 100 nM antibody, transduced 300-19 cell pools
T7 construct: Human-to-dog mutant of the human 4-1BB extracellular domain, expressed on transduced 300-19 cells
T7 chain: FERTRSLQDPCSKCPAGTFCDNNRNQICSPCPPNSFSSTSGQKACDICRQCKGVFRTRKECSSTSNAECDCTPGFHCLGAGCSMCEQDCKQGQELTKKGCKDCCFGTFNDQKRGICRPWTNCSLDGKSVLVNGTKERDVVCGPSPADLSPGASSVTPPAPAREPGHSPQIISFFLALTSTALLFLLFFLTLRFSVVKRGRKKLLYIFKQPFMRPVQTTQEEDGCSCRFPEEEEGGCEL

[13] = molecular target: T8, Hu41BB N&E.1 (human, UniProt Q07011 18-255); experiment: as above
T8 construct: Human-to-dog mutant of the human 4-1BB extracellular domain, expressed on transduced 300-19 cells
T8 chain: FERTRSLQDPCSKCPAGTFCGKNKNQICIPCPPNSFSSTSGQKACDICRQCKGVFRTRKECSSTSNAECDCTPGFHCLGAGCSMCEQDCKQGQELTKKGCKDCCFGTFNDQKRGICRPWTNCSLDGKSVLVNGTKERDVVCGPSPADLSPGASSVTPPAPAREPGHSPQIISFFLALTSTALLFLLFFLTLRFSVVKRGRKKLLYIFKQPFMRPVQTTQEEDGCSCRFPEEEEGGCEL

[14] = molecular target: T9, Hu41BB N&E.2 (human, UniProt Q07011 18-255); experiment: as above
T9 construct: Human-to-dog mutant of the human 4-1BB extracellular domain, expressed on transduced 300-19 cells
T9 chain: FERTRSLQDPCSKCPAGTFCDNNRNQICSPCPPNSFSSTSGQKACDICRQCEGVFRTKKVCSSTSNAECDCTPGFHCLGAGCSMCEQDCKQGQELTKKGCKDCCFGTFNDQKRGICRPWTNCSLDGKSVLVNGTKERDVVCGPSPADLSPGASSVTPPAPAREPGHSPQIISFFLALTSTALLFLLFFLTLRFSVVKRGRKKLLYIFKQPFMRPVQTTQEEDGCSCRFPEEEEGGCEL

[15] = molecular target: T10, Hu41BB N&E.3 (human, UniProt Q07011 18-255); experiment: as above
T10 construct: Human-to-dog mutant of the human 4-1BB extracellular domain, expressed on transduced 300-19 cells
T10 chain: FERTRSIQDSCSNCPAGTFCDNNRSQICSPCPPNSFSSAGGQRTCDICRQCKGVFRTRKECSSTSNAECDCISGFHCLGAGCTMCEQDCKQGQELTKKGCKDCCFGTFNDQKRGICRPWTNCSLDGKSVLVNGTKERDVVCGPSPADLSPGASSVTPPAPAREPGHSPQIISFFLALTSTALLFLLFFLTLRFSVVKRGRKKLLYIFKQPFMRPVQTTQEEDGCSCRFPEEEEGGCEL

[16] = molecular target: T11, Hu41BB N&E.4 (human, UniProt Q07011 18-255); experiment: as above
T11 construct: Human-to-dog mutant of the human 4-1BB extracellular domain, expressed on transduced 300-19 cells
T11 chain: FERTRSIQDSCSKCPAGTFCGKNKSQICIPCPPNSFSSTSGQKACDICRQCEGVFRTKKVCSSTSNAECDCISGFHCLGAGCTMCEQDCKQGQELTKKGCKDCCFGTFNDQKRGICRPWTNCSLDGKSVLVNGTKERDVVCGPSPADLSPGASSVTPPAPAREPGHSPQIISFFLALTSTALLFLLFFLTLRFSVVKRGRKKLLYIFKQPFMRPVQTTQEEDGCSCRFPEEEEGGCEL

[17] = molecular target: T12, Hu41BB N&E.6 (human, UniProt Q07011 18-255); experiment: as above
T12 construct: Human-to-dog mutant of the human 4-1BB extracellular domain, expressed on transduced 300-19 cells
T12 chain: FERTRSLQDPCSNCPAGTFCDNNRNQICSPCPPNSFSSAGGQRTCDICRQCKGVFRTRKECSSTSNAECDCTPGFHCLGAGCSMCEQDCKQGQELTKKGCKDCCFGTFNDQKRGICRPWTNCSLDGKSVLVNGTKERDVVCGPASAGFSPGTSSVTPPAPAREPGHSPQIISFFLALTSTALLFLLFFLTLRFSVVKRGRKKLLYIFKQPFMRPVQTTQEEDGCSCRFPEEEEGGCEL

[18] = molecular target: T13, human 4-1BB extracellular portion, amino acids 24-186 (Fc cleaved off with Factor Xa) (human, UniProt Q07011 24-186); experiment: SPR (Biacore 3000), antibody amine-coupled, 4-1BB 24-186 as analyte, 25 C
T13 construct: Made from the R&D Systems 4-1BB/Fc chimera by Factor Xa cleavage; also called recombinant human 4-1BB; the 4-1BB

[19] = molecular target: T1, Recombinant human 4-1BB/Fc Chimera (R&D …); experiment: ligand competition ELISA, 4-1BB_IgG1Fc to plate-bound 4-1BBL (competitor 4-1BBL)
[20] = molecular target: T2, human 4-1BB on cells; experiment: FACS dose response, Alexa Fluor 647 labelled antibody on 300-19 cells expressing human 4-1BB
[21] = molecular target: T4, Hu41BB N&E.5; experiment: FACS dose response, Alexa Fluor 647 labelled antibody on 300-19 cells expressing mutant N&E.5

B1: Fab-7480 (Fab, V domains shown)
VH: QVQLVQSGAEVKKPGESLKISCKGSGYSFSTYWISWVRQMPGKGLEWMGKIYPGDSYTNYSPSFQGQVTISADKSISTAYLQWSSLKASDTAMYYCARGYGIFDYWGQGTLVTVSS
VL: DIELTQPPSVSVAPGQTARISCSGDNIGDQYAHWYQQKPGQAPVVVIYQDKNRPSGIPERFSGSNSGNTATLTISGTQAEDEADYYCATYTGFGSLAVFGGGTKLTVL
For B1, the EC50 [1] was 0.7 nM, the EC50 [2] was 0.9 nM and the Kd [3] was 0.5 nM. The Kd [4] was 0.046 nM.

B2: MOR-7480 (IgG1) (antibody, V domains shown)
VH: QVQLVQSGAEVKKPGESLKISCKGSGYSFSTYWISWVRQMPGKGLEWMGKIYPGDSYTNYSPSFQGQVTISADKSISTAYLQWSSLKASDTAMYYCARGYGIFDYWGQGTLVTVSS
VL: DIELTQPPSVSVAPGQTARISCSGDNIGDQYAHWYQQKPGQAPVVVIYQDKNRPSGIPERFSGSNSGNTATLTISGTQAEDEADYYCATYTGFGSLAVFGGGTKLTVL
notes: Human IgG1 format, lambda light chain
B2 was tested, and the “fold selectivity for 4-1BB versus OX-40 and CD40” value [5] was no less than 100 fold, the “fold decrease in binding against human 4-1BB” value [6] was greater than 5 fold and the binding result [7] was “no binding (tested: 1000 nM)”. For the same binder, the binding result [8] was “no binding (tested: 1000 nM)”, the EC50 [9] was 0.076 nM and the EC50 [10] was 0.7 nM. For the same binder, the EC50 [11] was 0.6 nM, the binding result [12] was “binds” and the binding result [13] was “binds”. B2: binds [14]; binds [15]; binds [16]. The binding result [17] was “binds”, the Kd [18] was 0.42 nM and the koff [18] was 0.00015 s⁻¹. The kon [18] was 360000 M⁻¹ s⁻¹, the t1/2 [18] was 1.37 h and the “% max inhibition” value [19] was 96%. It also gave an IC50 [19] of 0.122 nM, an EC50 [20] of 1.68 nM and an EC50 [21] of 12.3 nM.
